Columns and labels:
[1] = target: separate RPA2 WH-domain (pTYB12-WH), recombinant; assay: MST; 100 nM target labelled on cysteines (RED-…), concentration gradient of unlabelled ligand; Monolith NT.115, premium coated capillaries, 40% MST power; 50 mM Tris-HCl pH 7.5, 100 mM NaCl, 1 mM DTT, 0.05% Tween-20, 0.5 mg/ml BSA; KD from at least three runs
[2] = target: mouse UNG2 wild type, recombinant (mUNG2-pET28a) (mouse) (UniProt P97931); assay: as above

Substance	Kd [1]	Kd [2]
mouse UNG2 wild type, recombinant (mUNG2-pET28a) (from UniProt P97931-1 1-306) (domain or fragment)	860 nM	
separate RPA2 WH-domain (pTYB12-WH), recombinant		1260 nM
